From paper PMC4339652, “Antibacterial toxin colicin N and phage protein G3p compete with TolB for a binding site on TolA” (Microbiology, 2015)
Where “and” joins values, the source holds several entries; their conditions need not be identical. Equal entries are not always repeated.

B1: Colicin N translocation domain, ColN-T (ColN 1-90) (domain or fragment)
chain: MGSNGADNAHNNAFGGGKNPGIGNTSGAGSNGSASSNRGNSNGWSWSNKPHKNDGFHSDGSYHITFHGDNNSKPKPGGNSGNRGNNGDGA
notes: Colicin N, disordered N-terminal translocation (T) domain, residues 1-90; also called ColN-T_(1–90); T_(1–90)
B2: G3p-N1, N-terminal (N1) domain of gene-3-protein of filamentous bacteriophage M13 (domain or fragment, UniProt P69168 19-104, looked up)
chain: AETVESCLAKPHTENSFTNVWKDDKTLDRYANYEGCLWNATGVVVCTGDETQCYGTWVPIGLAIPENEGGGSEGGGSEGGGSEGGG
notes: Gene-3-protein (G3p, minor coat protein), filamentous bacteriophage M13, N1 domain; also called G3p-sN1
B3: TolAIII (TolA domain III, residues 296-421), wild type (domain or fragment, E. coli, UniProt P19934 296-421, looked up)
chain: DIFGELSSGKNAPKTGGGAKGNNASPAGSGNTKNNGASGADINNYAGQIKSAIESKFYDASSYAGKTCTLRIKLAPDGMLLDIKPEGGDPALCQAALAAAKLAKIPKPPSQAVYEVFKNAPLDFKP
notes: TolA, E. coli, 421-residue protein; C-terminal domain III, residues 296-421, soluble truncate lacking TolAI-II; also called TolA_(III296–421); WT TolAIII

How the values were obtained:
Settings in all cases: both partners purified
[1] = molecular target: B3; assay: SPR; TolAIII WT, D418P or K420P amine-coupled to a CM5 chip (~550 RU; 155 RU TolAIII for ColN-T kinetics); concentration series of analyte (ColN-T, G3p-N1 0.2-50 µM; G3p-N1 V44P up to 250 µM); Biacore X-100, 25 °C, HEPES-EP (10 mM HEPES pH 7.4, 150 mM NaCl, 3.4 mM EDTA, 0.05 % P20); blank surface subtracted; kinetic fits and steady-state affinity
TolB DGSY-AGAA = molecular target: T1, TolB DGSY-AGAA (UniProt P0A855 22-430, DGSY-AGAA); assay: SPR; TolAIII (645 RU) amine-coupled to CM5; WT TolB or TolB mutants passed over (5 µM in Fig. 4e); 1:1 Langmuir fits and steady-state affinity; HEPES-EP, 25 °C
T1 construct: TolB with DGSY (109-112) changed to AGAA

TolB, wild type = molecular target: T2, TolB, wild type (UniProt P0A855 22-430); assay: as above
T2 construct: TolB, 47 kDa two-domain soluble periplasmic protein; also called WT TolB

| Binder | Kd [1] | koff [1] [s⁻¹] | kon [1] [M⁻¹ s⁻¹] | Kd (TolB DGSY-AGAA) | koff (TolB DGSY-AGAA) [s⁻¹] | kon (TolB DGSY-AGAA) [M⁻¹ s⁻¹] | Kd (TolB, wild type) | koff (TolB, wild type) [s⁻¹] | kon (TolB, wild type) [M⁻¹ s⁻¹] |
| --- | --- | --- | --- | --- | --- | --- | --- | --- | --- |
| B1 | 1.8 ± 0.2 µM | – | – | – | – | – | – | – | – |
| B2 | 15 µM and 11.9 µM | 0.31 ± 0.002 | 20600 | – | – | – | – | – | – |
| B3 | – | – | – | 39 µM and 48.3 µM | 0.1 ± 0.002 | 2710 | 37 µM and 43.2 µM | 0.3 ± 0.004 | 8270 |
